The supplement of paper PMC11875167

Assay: observed amide hydrogen exchange rate constant kobs (stretched exponential fit, FD-normalized) (s^-1); higher = faster H/D exchange (less protection)
Conditions: pH 3 (pH read); temperature: 20 °C; D2O: 88%
Procedure, shortened: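 Exchange was started by placing Jurkat tryptic peptides in 88% D2O at pHread 3 and 20 °C, and was stopped with 0.23% formic acid at 13 times from 18 to 93,600 s. HDExaminer processed MS1 uptake from a Q-Exactive HF with no back-exchange correction, normalizing it to full-deuteration controls prepared for 24 h at 37 °C. The fit used a stretched single exponential with β = 0.8. The observed exchange rate constant kobs is defined as the rate from this fit.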

In order of falling “observed amide hydrogen exchange rate constant kobs” value:
1. STAGDTHLGGEDFDNR  0.00417
2. IREEYPDR  0.00399
3. EAMEDGEIDGNK  0.0032
4. LFQECCPHSTDR  0.00299
5. VDNDENEHQLSLR  0.00288
6. HQEGEIFDTEK  0.0025
7. IEEELGSK  0.00244
8. TDTGEPMGR  0.00239
9. FSGWYDADLSPAGHEEAK  0.00239
10. GFGFVDFNSEEDAK  0.00238
11. AQQELEEQTRR  0.00236
12. ELISNSSDALDK  0.00235
13. CAADLGLNK  0.00234
14. GAVDGGLSIPHSTK  0.00225
15. IWHHTFYNELR  0.00224
16. NMGGPYGGGNYGPGGSGGSGGYGGR  0.00223
17. YPALHKPENQDIDWGALEGETR  0.0022
18. AVTEQGAELSNEER  0.00216
19. NFSDNQLQEGK  0.00213
20. EDSQRPGAHLTVK  0.00212
21. EVVEEAENGR  0.00211
22. IVEMSTSK  0.00206
23. DDGLFSGDPNWFPK  0.00189
24. DYFGAHTYELLAK  0.00186
25. GEENLMDAQVK  0.00185
26. ELISNASDALDK  0.00184
27. AIVAIENPADVSVISSR  0.00184
28. DNLTLWTSDMQGDGEEQNK  0.00177
29. LGGSLADSYLDEGFLLDK  0.00175
30. AVDDGVNTFK  0.00173
31. LWDLTTGTTTR  0.00172
32. LAHEVGWK  0.00169
33. VMLGETNPADSKPGTIR  0.00166
34. EMLQQSK  0.00166
35. QEMQEVQSSR  0.00166
36. MFVLDEADEMLSR  0.00164
37. NPDDITQEEYGEFYK  0.00161
38. ELLPEIR  0.0016
39. VIPELNGK  0.00159
40. GEATVSFDDPPSAK  0.00157
41. GVVPLAGTNGETTTQGLDGLSER  0.00156
42. TAFDEAIAELDTLNEDSYK  0.00156
43. HLEINPDHSIIETLR  0.00155
44. LVQDVANNTNEEAGDGTTTATVLAR  0.00155
45. IEDVTPIPSDSTR  0.00154
46. RFDDAVVQSDMK  0.00151
47. EIAEAYLGK  0.00148
48. QQISLATQMVR  0.00147
49. FPGQLNADLRK  0.00145
50. IFGGLDMLAEK  0.00145
51. HEHQVMLMR  0.00145
52. NLPLPPPPPPR  0.00144
53. VLLPEYGGTK  0.00144
54. EVFSMAGVVVR  0.00144
55. VLTVINQTQK  0.00141
56. NIGVDNPAAK  0.0014
57. LEEDINSSMTNSTAASRPPVTLR  0.00139
58. IIDVVYNASNNELVR  0.00138
59. ALAENSGVK  0.00135
60. QLFHPEQLITGK  0.00131
61. TFNTSTGGLLLPSDTK  0.00131
62. LEEDISSSMTNSTAASRPPVTLR  0.00131
63. DIFQEIFDK  0.00131
64. YAFVNWINK  0.00131
65. ITLPVDFVTADKFDENAK  0.0013
66. HQGVMVGMGQK  0.00127
67. TGTAEMSSILEER  0.00127
68. ENALVQMADGNQAQLAMSHLNGHK  0.00127
69. AGGFLMK  0.00127
70. VDQIIMAK  0.00126
71. DALSDLALHFLNK  0.00125
72. GCITIIGGGDTATCCAK  0.00119
73. NLLSVAYK  0.00119
74. FAAATGATPIAGR  0.00118
75. VIGSGCNLDSAR  0.00116
76. FLPLFDR  0.00116
77. SPYQEFTDHLVK  0.00116
78. GTLDPVEK  0.00116
79. DYNVTANSK  0.00116
80. IYVGNLPPDIR  0.00116
81. VAGQDGSVVQFK  0.00116
82. LYQSAGGMPGGMPGGFPGGGAPPSGGASSGPTIEEVD  0.00113
83. DLTDYLMK  0.00113
84. VFSGLVSTGLK  0.00112
85. VEVQYK  0.00112
86. ALPGQLKPFETLLSQNQGGK  0.0011
87. VLSSIEQK  0.00109
88. AMGIMNSFVNDIFER  0.00109
89. ALENDPDCR  0.00109
90. FTQAGSEVSALLGR  0.00109
91. NFAFLEFR  0.00106
92. HELLQPFNVLYEK  0.00104
93. VAPEEHPVLLTEAPLNPK  0.00104
94. EIIDLVLDR  0.00103
95. NIEDVIAQGIGK  0.00103
96. CILQDGR  0.00103
97. GAEAANVTGPGGVPVQGSK  0.00103
98. QIPQATASMK  0.00103
99. ANTFVAELK  0.00102
100. EAEAAIYHLQLFEELRR  0.00102
101. NLPFDFTWK  0.00101
102. SVETIK  0.000994
103. SADTLWGIQK  0.000987
104. ALGQNPTNAEVLK  0.000979
105. ILQDGGLQVVEK  0.000978
106. YLIPNATQPESK  0.000945
107. EITALAPSTMK  0.000944
108. TLLGDGPVVTDPK  0.000938
109. GIVDQSQQAYQEAFEISK  0.000918
110. QSLGELIGTLNAAK  0.000915
111. WTGMIIGPPR  0.000901
112. IEDLSQQAQLAAAEK  0.0009
113. LAPITSDPTEATAVGAVEASFK  0.000899
114. ELSDFISYLQR  0.000898
115. KSDVEAIFSK  0.000898
116. ELLDLLYK  0.000866
117. LILPHVDIQLK  0.000852
118. PYVEEGLHPQIIIR  0.000843
119. MTDQEAIQDLWQWR  0.000842
120. IGPLGLSPK  0.000838
121. AVFPSIVGRPR  0.000833
122. ESVPEFPLSPPK  0.00083
123. QFLFRPWDVTK  0.000828
124. VEGTEPTTAFNLFVGNLNFNK  0.000826
125. SIEVIENR  0.000822
126. VSHVSTGGGASLELLEGK  0.000818
127. ISVVSTK  0.000812
128. LFVGGLK  0.000811
129. TYSYLTPDLWK  0.000805
130. STGGAPTFNVTVTK  0.000782
131. TATESFASDPILYRPVAVALDTK  0.000776
132. VTLATLK  0.000759
133. EKPYFPIPEEYTFIQNVPLEDR  0.000754
134. AVCMLSNTTAIAEAWAR  0.000746
135. SINPDEAVAYGAAVQAAILSGDK  0.000731
136. IITLTGPTNAIFK  0.000716
137. LGGSAVISLEGKPL  0.000716
138. LVKQELK  0.000709
139. IHFPLATYAPVISAEK  0.000691
140. LVLVGDGGTGK  0.000679
141. DLSTIEPLK  0.000669
142. VPPPPPIAR  0.000659
143. GFGFVLFK  0.000656
144. LDNLVAILDINR  0.00063
145. DLPLLLFR  0.000629
146. DEILPTTPISEQK  0.000626
147. AFAMIIDK  0.000626
148. DAGPLLISLK  0.000622
149. TSFFQALGITTK  0.00062
150. DVLFLK  0.000617
151. GYISPYFINTSK  0.000598
152. TIAPALVSK  0.000597
153. RLNINAAK  0.000596
154. VETGVLKPGMVVTFAPVNVTTEVK  0.000574
155. VTIAQGGVLPNIQAVLLPK  0.000495
156. VFIGNLNTLVVK  0.000428
157. VMVQPINLIFR  0.000387
